This is an account of results in US20140045756A1 (NEW YORK UNIVERSITY, published 2014).

The target of this assay is T1, TNFR2 (TNFRSF1B/CD120b), yeast two-hybrid construct (mouse (clone from a murine embryonic …, UniProt P25119 23-258)).
T1 construct: one molecule is used for all Y2H assays; also called cell surface TNFR2
T1 sequence (looked up): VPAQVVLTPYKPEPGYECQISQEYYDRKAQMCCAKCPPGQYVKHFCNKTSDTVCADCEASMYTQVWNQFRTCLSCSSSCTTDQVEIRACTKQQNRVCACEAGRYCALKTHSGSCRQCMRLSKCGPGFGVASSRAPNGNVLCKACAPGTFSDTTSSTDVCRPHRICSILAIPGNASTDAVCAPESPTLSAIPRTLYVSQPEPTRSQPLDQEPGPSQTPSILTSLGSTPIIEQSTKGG
In words: yeast two-hybrid, β-galactosidase assay.

Procedure: Assay of protein-protein interactions using the Y2H system. Independent yeast colonies were analyzed for the interaction of two proteins, one of which was fused to the Ga14 DNA binding domain and the other, to the VP16 transactivation domain. Previously published procedures were followed for 1) growing and transforming the yeast strain MAV203 with the selected plasmids; and 2) determining β-galactosidase activity and growth phenotypes on selective media lacking tryptophan, leucine, histidine, and uracil.

B1: PGRN granulin unit F (yeast two-hybrid construct) (peptide)
chain: AIQCPDSQFECPDFSTCCVMVDGSWGCCPMPQASCCEDRVHCCPHGAFCDLVHTRCI
notes: also called granulin F
B1: the binding result is “no binding”.

B2: PGRN linker region P5 (yeast two-hybrid construct) (peptide)
chain: EQGPHQVPWMEKAPAHLSLPDPQALKRDV
Take B2: the binding result was “no binding”.

B3: PGRN granulin unit A (yeast two-hybrid construct) (peptide)
chain: DVKCDMEVSCPDGYTCCRLQSGAWGCCPFTQAVCCEDHIHCCPAGFTCDTQKGTCE
notes: also called granulin A
Turning to B3, the binding result is “no binding”.

B4: PGRN linker region P3 (yeast two-hybrid construct) (peptide)
chain: ITPTGTHPLAKKLPAQRTNRAVALSSS
Consider B4, for which the binding result is on record as “no binding”.

B5: PGRN granulin unit C (yeast two-hybrid construct) (peptide)
chain: VPCDNVSSCPSSDTCCQLTSGEWGCCPIPEAVCCSDHQHCCPQGYTCVAEGQCQ
notes: also called granulin C
With B5, the binding result was “no binding”.

B6: PGRN linker region P4 (yeast two-hybrid construct) (peptide)
chain: LSKENATTDLLTKLPAHTVGD
Take B6: the binding result is on record as “no binding”.
